Test results as given in US20220306765A1 (SUZHOU TRANSCENTA THERAPEUTICS, published 2022).

Tests used:
human CLDN18.2 [1] = biological target: T1, human CLDN18.2 (human); experiment: FACS, HEK293-CLDN18.2 cells
T1 construct: also called hCLDN18.2; Claudin-18 splice variant 2

human CLDN18.2 [2] = biological target: T1, human CLDN18.2; experiment: FACS, NUGC4 cells
human CLDN18.2-mRFP E56Q = human CLDN18.2-mRFP E56Q (human); experiment: FACS, transfected HEK293, 10 µg/ml antibody;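 further: antibody binding read by flow cytometry with a FITC-labelled anti-human IgG secondary, gated on RFP-positive cells, each mutant signal expressed against wild-type CLDN18.2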
Chain of human CLDN18.2-mRFP E56Q (human) (chain, as listed by the source E56Q E56Q limits assumed): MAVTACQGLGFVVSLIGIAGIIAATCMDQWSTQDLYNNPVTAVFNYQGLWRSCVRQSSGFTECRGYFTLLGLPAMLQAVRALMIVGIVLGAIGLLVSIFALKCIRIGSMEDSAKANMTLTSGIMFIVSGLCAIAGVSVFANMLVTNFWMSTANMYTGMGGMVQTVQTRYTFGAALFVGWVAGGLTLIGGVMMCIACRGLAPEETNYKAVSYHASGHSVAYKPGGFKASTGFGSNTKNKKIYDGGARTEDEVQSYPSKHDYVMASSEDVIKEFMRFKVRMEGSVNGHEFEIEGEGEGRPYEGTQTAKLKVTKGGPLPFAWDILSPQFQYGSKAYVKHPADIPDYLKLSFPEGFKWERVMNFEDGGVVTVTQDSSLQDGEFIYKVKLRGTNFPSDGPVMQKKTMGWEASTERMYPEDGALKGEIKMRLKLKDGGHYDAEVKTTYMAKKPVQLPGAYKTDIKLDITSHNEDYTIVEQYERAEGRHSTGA

human CLDN18.2-mRFP N45Q = human CLDN18.2-mRFP N45Q (human); experiment: FACS, transfected HEK293, 10 µg/ml antibody;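 further: antibody binding read by flow cytometry with a FITC-labelled anti-human IgG secondary, gated on RFP-positive cells, each mutant signal expressed against wild-type CLDN18.2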
Chain of human CLDN18.2-mRFP N45Q (human) (chain, as listed by the source N45Q N45Q limits assumed): as the sequence (chain, as listed by the source E56Q E56Q limits assumed) above, with N45Q, Q56E counted along it

human CLDN18.2-mRFP N37D = human CLDN18.2-mRFP N37D (human); experiment: FACS, transfected HEK293, 10 µg/ml antibody;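 further: antibody binding read by flow cytometry with a FITC-labelled anti-human IgG secondary, gated on RFP-positive cells, each mutant signal expressed against wild-type CLDN18.2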
Chain of human CLDN18.2-mRFP N37D (human) (chain, as listed by the source N37D N37D limits assumed): as the sequence (chain, as listed by the source E56Q E56Q limits assumed) above, with N37D, Q56E counted along it

human CLDN18.2-mRFP L69I = human CLDN18.2-mRFP L69I (human); experiment: FACS, transfected HEK293, 10 µg/ml antibody;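 further: antibody binding read by flow cytometry with a FITC-labelled anti-human IgG secondary, gated on RFP-positive cells, each mutant signal expressed against wild-type CLDN18.2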
Chain of human CLDN18.2-mRFP L69I (human) (chain, as listed by the source L69I L69I limits assumed): as the sequence (chain, as listed by the source E56Q E56Q limits assumed) above, with Q56E, L69I counted along it

human CLDN18.2-mRFP A42S = human CLDN18.2-mRFP A42S (human); experiment: FACS, transfected HEK293, 10 µg/ml antibody
Chain of human CLDN18.2-mRFP A42S (human) (chain, as listed by the source A42S A42S limits assumed): as the sequence (chain, as listed by the source E56Q E56Q limits assumed) above, with A42S, Q56E counted along it

human CLDN18.2-mRFP Q47E = human CLDN18.2-mRFP Q47E (human); experiment: FACS, transfected HEK293, 10 µg/ml antibody
Chain of human CLDN18.2-mRFP Q47E (human) (chain, as listed by the source Q47E Q47E limits assumed): as the sequence (chain, as listed by the source E56Q E56Q limits assumed) above, with Q47E, Q56E counted along it

human CLDN18.2-mRFP Q29M = human CLDN18.2-mRFP Q29M (human); experiment: FACS, transfected HEK293, 10 µg/ml antibody
Chain of human CLDN18.2-mRFP Q29M (human) (chain, as listed by the source Q29M Q29M limits assumed): as the sequence (chain, as listed by the source E56Q E56Q limits assumed) above, with Q29M, Q56E counted along it

human CLDN18.2-mRFP G65P = human CLDN18.2-mRFP G65P (human); experiment: FACS, transfected HEK293, 10 µg/ml antibody
Chain of human CLDN18.2-mRFP G65P (human) (chain, as listed by the source G65P G65P limits assumed): as the sequence (chain, as listed by the source E56Q E56Q limits assumed) above, with Q56E, G65P counted along it

[3] = biological target: T2, human CLDN18.2-mRFP1, wild-type (human); experiment: FACS, transfected HEK293, 10 µg/ml antibody
T2 construct: human CLDN18.2 (amino acid 1-261) fused to mRFP1 (amino acid 1-225), transiently expressed in HEK293 cells; also called wild-type human CLDN18.2-mRFP

human CLDN18.1 [4] = biological target: T3, human CLDN18.1 (human, UniProt P56856 1-261); experiment: FACS, HEK293-CLDN18.1 cells
T3 construct: on HEK293-CLDN18.1 cells; also called Claudin-18 splice variant 1; NP_057453.1
T3 sequence (P56856 whole entry, canonical isoform): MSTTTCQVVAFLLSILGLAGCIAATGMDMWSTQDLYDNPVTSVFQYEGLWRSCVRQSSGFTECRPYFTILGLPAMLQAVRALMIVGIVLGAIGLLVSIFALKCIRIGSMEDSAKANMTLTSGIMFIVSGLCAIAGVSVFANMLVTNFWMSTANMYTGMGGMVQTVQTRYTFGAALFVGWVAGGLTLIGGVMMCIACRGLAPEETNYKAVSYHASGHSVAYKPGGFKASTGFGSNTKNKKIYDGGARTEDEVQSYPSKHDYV

human CLDN18.2 [5] = biological target: T1, human CLDN18.2; experiment: flow cytometry on NUGC4 cells, goat anti-mIgG-FITC
Protocol: (§1) Log-phase HEK293-CLDN18.2 and NUGC4 cells were re-suspended in PBS. After 3× cell wash by using FACS washing buffer (PBS+2% FBS), 100 μl/well diluted hybridoma Abs with a range from 400 nM to 0.002 nM were added into each well for incubation at 4° C. for 30 min. Again, cells were washed 3 times by using FACS washing buffer and then incubated with 100 μl/well goat anti-mIgG-FITC (1:400 dilution) at 4° C. for another 30 min. After a final 3× wash using FACS washing buffer, cells were analyzed by flow Cytometry.

human CLDN18.2 [6] = biological target: T1, human CLDN18.2; experiment: FACS, HEK293-CLDN18.2 cells; remark: listed apart in the source
Protocol: as §1

human CLDN18.2 [7] = biological target: T1, human CLDN18.2; experiment: flow cytometry on HEK293-CLDN18.2 cells, goat anti-mIgG-FITC; unit taken from the concentration axis
Protocol: as §1

human CLDN18.1 [8] = biological target: T3, human CLDN18.1; experiment: FACS, hybridoma supernatant, HEK293-CLDN18.1 cells
Protocol: Log-phase CLDN18.1 expressing HEK293-CLDN18.1 cells were resuspended in PBS at a density of 10\hat{ }5/100 μl per well. After 3× cell wash by using FACS washing buffer (PBS+2% FBS), 100 μl/well hybridoma supernatant was added into each well for incubation at 4° C. for 30 min. Again, cells were washed 3 times by using FACS washing buffer and then incubated with 100 μl/well goat anti-mIgG-FITC (1:400 dilution) at 4° C. for another 30 min. After a final 3× wash using FACS washing buffer, cells were analyzed by flow Cytometry.

human CLDN18.2 [9] = biological target: T1, human CLDN18.2; experiment: flow cytometry on HEK293-CLDN18.2 cells; unit taken from the concentration axis
Protocol: as §1

Binder	EC50 (human CLDN18.2 [1])	EC50 (human CLDN18.2 [2])	binding percentage vs wild-type CLDN18.2 (human CLDN18.2-mRFP E56Q)	binding percentage vs wild-type CLDN18.2 (human CLDN18.2-mRFP N45Q)	binding percentage vs wild-type CLDN18.2 (human CLDN18.2-mRFP N37D)	binding percentage vs wild-type CLDN18.2 (human CLDN18.2-mRFP L69I)	binding percentage vs wild-type CLDN18.2 (human CLDN18.2-mRFP A42S)	binding percentage vs wild-type CLDN18.2 (human CLDN18.2-mRFP Q47E)	binding percentage vs wild-type CLDN18.2 (human CLDN18.2-mRFP Q29M)	binding percentage vs wild-type CLDN18.2 (human CLDN18.2-mRFP G65P)	binding percentage vs wild-type CLDN18.2 [3]	binding result (human CLDN18.1 [4])	EC50 (human CLDN18.2 [6])	binding result (human CLDN18.1 [8])	EC50 (human CLDN18.2 [9])	also measured
7C12-C (antibody, human IgG1, V domains shown, also called chimeric 7C12) VH: EFQLQQSGPELEKPGASVRISCKTSGYSFTGYNMNWVKQSNGESLEWIGNIDPYYGATRYNQKFKGKATLTVDKSSSTAYMQLKSLTSEDSAVYYCARSYYGNAFDYWGQGTTLTVSS VL: DIVMTQSPSSLTVTAGEKVTMSCKSSQSLLNSGNQKNYLTWYQQKPGQPPKLLIYWASTRESGVPDRFTGSGSGTDFTLTISSVQAEDLAVYYCQNDYSFPFTFGSGTKLEIK	0.63 µg/mL	13 µg/mL	0.48%	52.1%	80.2%	90.4%	38.7%	74.7%	83.5%	79.4%	100%	no binding	–	–	–	–
7C12 (antibody, V domains shown, mouse hybridoma antibody; also called hybridoma antibody 7C12) VH: EFQLQQSGPELEKPGASVRISCKTSGYSFTGYNMNWVKQSNGESLEWIGNIDPYYGATRYNQKFKGKATLTVDKSSSTAYMQLKSLTSEDSAVYYCARSYYGNAFDYWGQGTTLTVSS VL: DIVMTQSPSSLTVTAGEKVTMSCKSSQSLLNSGNQKNYLTWYQQKPGQPPKLLIYWASTRESGVPDRFTGSGSGTDFTLTISSVQAEDLAVYYCQNDYSFPFTFGSGTKLEIK	–	–	–	–	–	–	–	–	–	–	–	–	1.08 µg/mL	no binding	–	EC50 (read off the curve) (human CLDN18.2 [5]): ~0.5 µg/mL; EC50 (human CLDN18.2 [7]): 0.417 µg/mL
12E9-C (antibody, human IgG1, V domains shown, also called chimeric 12E9) VH: EFQLQQSGPELEKPGASVRISCKTSGYSFTGYNMNWVKQSNGESLEWIGNIDPYYGGTRYNQKFKGKATLTVDKSSSTAYMQLKSLTSEDSAVYYCARSYYGNAFDYWGQGTTLTVSS VL: DIVMTQSPSSLTVTAGEKVTMSCKSSQNLLNNGNQKNYLTWYQQKPGQPPKLLIYWASTRESGVPDRFTGSGSGTDFILTISSVQAEDLAVYYCQNDYSFPFTFGAGTKLELK	0.65 µg/mL	9.37 µg/mL	0.35%	50.8%	103%	58.1%	55.1%	89.1%	106%	96.7%	100%	no binding	–	–	–	–
18B10 (antibody, V domains shown, mouse hybridoma antibody; also called hybridoma antibody 18B10) VH: EFQLQQSGPELEKPGASVRISCKTSGYSFTGYNMNWVKQSNGESLEWIGNIDPYYGGTSYNQKFKGKATLTVDKSSSTAYMQLKSLTSEDSAVYYCARMYHGNAFDYWGQGTTLTVSS VL: DIVMTQSPSSLTVTAGEKVTMSCKSSQSLLNSGNLKNYLTWYQQKPGQPPKLLIYWASTRKSGVPDRFTGSGSGTDFTLTLSSVQAEDLAVYYCQNDYSYPLTFGAGTKLELK	–	–	–	–	–	–	–	–	–	–	–	–	0.81 µg/mL	no binding	–	–
11F12 (antibody, V domains shown, mouse hybridoma antibody; also called hybridoma antibody 11F12) VH: EFQLQQSGPELEKPGASVRISCKTSGYSFTGYNMNWVKQSNGESLEWIGYIDPYYGGTRYNQKFKGKATLTVDKSSSTAYMQLKSLTSEDSAVYYCARSYYGNAFDYWGQGTTLTVSS VL: DIVMTQSPSSLTVTAGEKVTMSCKSSQSLLNSGNQKNYLTWYQQKPGQPPKLLIYWASTRESGVPDRFTGSGSGTDFTLTISSVQAEDLAVYYCQNDYSYPFTFGSGTKLEIK	–	–	–	–	–	–	–	–	–	–	–	–	0.82 µg/mL	no binding	–	EC50 (read off the curve) (human CLDN18.2 [5]): ~1 µg/mL; EC50 (human CLDN18.2 [7]): 0.605 µg/mL
11F12-C (antibody, human IgG1, V domains shown, also called chimeric 11F12) VH: EFQLQQSGPELEKPGASVRISCKTSGYSFTGYNMNWVKQSNGESLEWIGYIDPYYGGTRYNQKFKGKATLTVDKSSSTAYMQLKSLTSEDSAVYYCARSYYGNAFDYWGQGTTLTVSS VL: DIVMTQSPSSLTVTAGEKVTMSCKSSQSLLNSGNQKNYLTWYQQKPGQPPKLLIYWASTRESGVPDRFTGSGSGTDFTLTISSVQAEDLAVYYCQNDYSYPFTFGSGTKLEIK	0.61 µg/mL	10 µg/mL	0.27%	57.4%	102%	74.3%	56.9%	86.1%	108%	92.7%	100%	no binding	–	–	–	–
18B10-HbLa (antibody, human IgG1, kappa, V domains shown, humanized 18B10, human IgG1 / kappa) VH: QVQLVQSGAEVKKPGASVKVSCKASGYSFTGYNMNWVRQAPGQGLEWMGNIDPYYGGTSYNQKFKGRVTLTIDKSTSTVYMELSSLRSEDTAVYYCARMYHGNAFDYWGQGTTVTVSS VL: DIVMTQSPDSLAVSLGERATINCKSSQSLLNSGNLKNYLTWYQQKPGQPPKLLIYWASTRKSGVPDRFSGSGSGTDFTLTISSLQAEDVAVYYCQNDYSYPLTFGGGTKVEIKR	–	–	–	–	–	–	–	–	–	–	–	–	–	–	1.31 µg/mL	–

Second part, led by results:

EC50 (human CLDN18.2 [1])	EC50 (human CLDN18.2 [2])	binding percentage vs wild-type CLDN18.2 (human CLDN18.2-mRFP E56Q)	binding percentage vs wild-type CLDN18.2 (human CLDN18.2-mRFP N45Q)	binding percentage vs wild-type CLDN18.2 (human CLDN18.2-mRFP N37D)	binding percentage vs wild-type CLDN18.2 (human CLDN18.2-mRFP L69I)	binding percentage vs wild-type CLDN18.2 (human CLDN18.2-mRFP A42S)	binding percentage vs wild-type CLDN18.2 (human CLDN18.2-mRFP Q47E)	binding percentage vs wild-type CLDN18.2 (human CLDN18.2-mRFP Q29M)	binding percentage vs wild-type CLDN18.2 (human CLDN18.2-mRFP G65P)	binding percentage vs wild-type CLDN18.2 [3]	binding result (human CLDN18.1 [4])	EC50 (human CLDN18.2 [6])	binding result (human CLDN18.1 [8])	EC50 (human CLDN18.2 [9])	Binder	also measured
–	–	–	–	–	–	–	–	–	–	–	–	0.51 µg/mL	no binding	–	59A9 (antibody, V domains shown, mouse hybridoma antibody; also called hybridoma antibody 59A9) VH: QITQKESGPGILQPSQTLSLTCSLSGFSLSTYFIGVGWIRQPSGKGLEWLAHIWWNDNKYYNTALKSRLTISKDTSNNQVFLKIASVDTADTATYYCARMGSGAWFTYWGQGTLVTVSA VL: DIVMTQSPSSLTVTAGEKVTMSCKSSQSLLNSGNQKNYLTWYQQKPGQPPKLLIYWASTRESGVPDRFTGSGSGTDFTLTISSVQAEDLAVYYCQNDYYYPLTFGSGTKLEIK	–
1.1 µg/mL	67.1 µg/mL	0.34%	88.7%	118%	79.7%	82.2%	116%	107%	119%	100%	no binding	–	–	–	26G6-C (antibody, human IgG1, V domains shown, also called chimeric 26G6) VH: EFQLQQSGPELEKPGASVKISCKTSGYSFTGYNMNWVKQSNGQSLEWIGHIDPYYVTTTYNQKFRGKATLTVDKSSSTAYMQLKSLTSEDSAVYYCARSFYGNAFDYWGQGTTLTVSS VL: DIVMTQSPSSLTVTAGEKVTMSCKSSQSLFNSGNQKNYLTWYQQKPGQPPKLLIYWASTRESGVPDRFTGSGSGTDFTLTISSVQAEDLAVYYCQNDYSFPFTFGSGTKLEIK	–
–	–	–	–	–	–	–	–	–	–	–	–	–	–	1.2 µg/mL	18B10-HbLb (antibody, human IgG1, kappa, V domains shown, humanized 18B10, human IgG1 / kappa) VH: QVQLVQSGAEVKKPGASVKVSCKASGYSFTGYNMNWVRQAPGQGLEWMGNIDPYYGGTSYNQKFKGRVTLTIDKSTSTVYMELSSLRSEDTAVYYCARMYHGNAFDYWGQGTTVTVSS VL: DIVMTQSPDSLAVSLGERATMNCKSSQSLLNSGNLKNYLTWYQQKPGQPPKLLIYWASTRKSGVPDRFTGSGSGTDFTLTISSLQAEDVAVYYCQNDYSYPLTFGGGTKVEIKR	–
–	–	–	–	–	–	–	–	–	–	–	–	–	–	1.39 µg/mL	18B10-HcLa (antibody, human IgG1, kappa, V domains shown, humanized 18B10, human IgG1 / kappa) VH: QVQLVQSGAEVKKPGASVKVSCKASGYSFTGYNMNWVKQAPGQGLEWIGNIDPYYGGTSYNQKFKGRVTLTIDKSTSTVYMELSSLRSEDTAVYYCARMYHGNAFDYWGQGTTVTVSS VL: DIVMTQSPDSLAVSLGERATINCKSSQSLLNSGNLKNYLTWYQQKPGQPPKLLIYWASTRKSGVPDRFSGSGSGTDFTLTISSLQAEDVAVYYCQNDYSYPLTFGGGTKVEIKR	–
–	–	–	–	–	–	–	–	–	–	–	–	–	–	1.27 µg/mL	18B10-HaLb (antibody, human IgG1, kappa, V domains shown, humanized 18B10, human IgG1 / kappa) VH: QVQLVQSGAEVKKPGASVKVSCKASGYTFTGYNMNWVRQAPGQGLEWMGNIDPYYGGTSYNQKFKGRVTMTIDKSTSTVYMELSSLRSEDTAVYYCARMYHGNAFDYWGQGTTVTVSS VL: DIVMTQSPDSLAVSLGERATMNCKSSQSLLNSGNLKNYLTWYQQKPGQPPKLLIYWASTRKSGVPDRFTGSGSGTDFTLTISSLQAEDVAVYYCQNDYSYPLTFGGGTKVEIKR	–
–	–	–	–	–	–	–	–	–	–	–	–	–	–	1.22 µg/mL	18B10-HcLb (antibody, human IgG1, kappa, V domains shown, humanized 18B10, human IgG1 / kappa) VH: QVQLVQSGAEVKKPGASVKVSCKASGYSFTGYNMNWVKQAPGQGLEWIGNIDPYYGGTSYNQKFKGRVTLTIDKSTSTVYMELSSLRSEDTAVYYCARMYHGNAFDYWGQGTTVTVSS VL: DIVMTQSPDSLAVSLGERATMNCKSSQSLLNSGNLKNYLTWYQQKPGQPPKLLIYWASTRKSGVPDRFTGSGSGTDFTLTISSLQAEDVAVYYCQNDYSYPLTFGGGTKVEIKR	–
